Experimental data from paper doi:10.1101/757856, “Biochemical and structural analysis reveals the Neurofibromin (NF1) protein forms a high-affinity dimer” (bioRxiv, 2019).

T1: Neurofibromin EF fragment (1821-2818, purified) (human, UniProt P21359-2 1821-2818)
T1 construct: Neurofibromin, human NF1 isoform 2 (NM_000267.3), residues 1821-2818 (domains E and F); expected molar mass 111 kDa; also called EF domain; C-terminal EF domain; source: baculovirus-based insect cell system, purified; not shown: His6-MBP, N-terminal, cleaved
T1 sequence (looked up): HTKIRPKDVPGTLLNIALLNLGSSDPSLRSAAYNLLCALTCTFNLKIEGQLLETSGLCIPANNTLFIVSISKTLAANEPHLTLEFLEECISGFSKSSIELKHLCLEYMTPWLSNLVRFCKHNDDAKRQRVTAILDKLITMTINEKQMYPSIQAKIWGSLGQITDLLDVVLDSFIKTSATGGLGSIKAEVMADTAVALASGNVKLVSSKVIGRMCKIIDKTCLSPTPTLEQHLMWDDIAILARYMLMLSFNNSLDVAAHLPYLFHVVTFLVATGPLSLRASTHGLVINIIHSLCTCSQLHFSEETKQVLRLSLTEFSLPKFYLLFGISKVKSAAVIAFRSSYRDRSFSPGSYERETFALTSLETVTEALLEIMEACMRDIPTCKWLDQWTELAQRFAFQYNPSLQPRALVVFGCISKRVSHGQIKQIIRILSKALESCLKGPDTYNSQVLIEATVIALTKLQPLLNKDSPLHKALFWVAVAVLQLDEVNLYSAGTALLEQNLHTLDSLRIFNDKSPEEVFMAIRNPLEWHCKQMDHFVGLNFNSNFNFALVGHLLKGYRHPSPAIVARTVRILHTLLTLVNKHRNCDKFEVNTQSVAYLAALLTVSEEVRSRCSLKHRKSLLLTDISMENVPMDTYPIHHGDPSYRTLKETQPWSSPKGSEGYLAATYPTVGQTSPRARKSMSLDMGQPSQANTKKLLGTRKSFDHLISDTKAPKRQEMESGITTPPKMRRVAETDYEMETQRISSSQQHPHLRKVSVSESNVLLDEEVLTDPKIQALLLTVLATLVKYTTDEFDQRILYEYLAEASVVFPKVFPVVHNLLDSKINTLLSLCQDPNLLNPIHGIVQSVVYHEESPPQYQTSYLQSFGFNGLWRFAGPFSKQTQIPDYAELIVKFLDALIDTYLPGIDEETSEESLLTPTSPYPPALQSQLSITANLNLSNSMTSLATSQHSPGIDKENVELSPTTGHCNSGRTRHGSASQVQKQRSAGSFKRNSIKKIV


Columns and labels:
[1] = molecular target: T1, Neurofibromin EF fragment (1821-2818, …); test: SEC; equimolar mixtures of purified NF1 fragments run on SEC; fractions analysed by SDS-PAGE for co-elution; conditions: both partners purified
[2] = molecular target: T2, Neurofibromin DEF fragment (1541-2818, purified) (human, UniProt P21359-2 1541-2818); test: as above; conditions: both partners purified
T2 construct: expected molar mass 144 kDa; also called DEF domain; carboxy-terminal DEF; source: baculovirus-based insect cell system, purified; not shown: His6-MBP, N-terminal, cleaved

Row | Binder | binding result [1] | binding result [2]
1 | Neurofibromin C*D domain (1085-1816) (domain or fragment, human, UniProt P21359-2 1085-1816, looked up, C* constructs have an altered start site within the C domain; source: purified; not shown: His6-MBP, N-terminal, cleaved) LQPEEGDGVELMEAKSQLFLKYFTLFMNLLNDCSEVEDESAQTGGRKRGMSRRLASLRHCTVLAMSNLLNANVDSGLMHSIGLGYHKDLQTRATFMEVLTKILQQGTEFDTLAETVLADRFERLVELVTMMGDQGELPIAMALANVVPCSQWDELARVLVTLFDSRHLLYQLLWNMFSKEVELADSMQTLFRGNSLASKIMTFCFKVYGATYLQKLLDPLLRIVITSSDWQHVSFEVDPTRLEPSESLEENQRNLLQMTEKFFHAIISSSSEFPPQLRSVCHCLYQVVSQRFPQNSIGAVGSAMFLRFINPAIVSPYEAGILDKKPPPRIERGLKLMSKILQSIANHVLFTKEEHMRPFNDFVKSNFDAARRFFLDIASDCPTSDAVNHSLSFISDGNVLALHRLLWNNQEKIGQYLSSNRDHKAVGRRPFDKMATLLAYLGPPEHKPVADTHWSSLNLTSSKFEEFMTRHQVHEKEEFKALKTLSIFYQAGTSKAGNPIFYYVARRFKTGQINGDLLIYHVLLTLKPYYAKPYEIVVDLTHTGPSNRFKTDFLSKWFVVFPGFAYDNVSAVYIYNCNSWVREYTKYHERLLTGLKGSKRLVFIDCPGKLAEHIEHEQQKLPAATLALEEDLKVFHNALKLAHKDTKVSIKVGSTAVQVTSAERTKVLGQSVFLNDIYYASEIEEICLVDENQFTLTIANQGTPLTFMHQECEAIVQSIIHIRTRWELSQPD | binds | –
2 | Neurofibromin C* domain (1085-1530) (domain or fragment, human, UniProt P21359-2 1085-1530, looked up, source: purified; not shown: His6-MBP, N-terminal, cleaved) LQPEEGDGVELMEAKSQLFLKYFTLFMNLLNDCSEVEDESAQTGGRKRGMSRRLASLRHCTVLAMSNLLNANVDSGLMHSIGLGYHKDLQTRATFMEVLTKILQQGTEFDTLAETVLADRFERLVELVTMMGDQGELPIAMALANVVPCSQWDELARVLVTLFDSRHLLYQLLWNMFSKEVELADSMQTLFRGNSLASKIMTFCFKVYGATYLQKLLDPLLRIVITSSDWQHVSFEVDPTRLEPSESLEENQRNLLQMTEKFFHAIISSSSEFPPQLRSVCHCLYQVVSQRFPQNSIGAVGSAMFLRFINPAIVSPYEAGILDKKPPPRIERGLKLMSKILQSIANHVLFTKEEHMRPFNDFVKSNFDAARRFFLDIASDCPTSDAVNHSLSFISDGNVLALHRLLWNNQEKIGQYLSSNRDHKAVGRRPFDKMATLLAYLGPPEH | binds | binds
